The record followed here is paper PMC6848426 (Rice, 2019).

In the assay the target is T1, GST-OsSGT1 (rice (Oryza sativa L.), UniProt Q0JL44 1-367).
T1 sequence (looked up): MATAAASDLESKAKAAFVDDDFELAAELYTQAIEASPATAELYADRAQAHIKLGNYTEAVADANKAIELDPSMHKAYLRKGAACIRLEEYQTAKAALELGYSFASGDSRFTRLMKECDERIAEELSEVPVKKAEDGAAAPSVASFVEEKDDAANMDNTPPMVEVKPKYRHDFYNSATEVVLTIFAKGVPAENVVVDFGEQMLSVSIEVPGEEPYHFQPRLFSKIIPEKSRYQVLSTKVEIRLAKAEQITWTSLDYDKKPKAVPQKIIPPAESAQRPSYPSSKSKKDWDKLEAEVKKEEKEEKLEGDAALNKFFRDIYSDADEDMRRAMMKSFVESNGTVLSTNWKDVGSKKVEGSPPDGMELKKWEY
Nature of the assay: pull-down; GST-, GST-fusion-coupled beads used to capture the His tag or His-OsSAPK9; detection with HRP-conjugated anti-His antibody. To be noted: both partners purified.

B1: His-OsSAPK9 (natural protein, rice (Oryza sativa L.), UniProt Q75V57 1-361, looked up)
chain: MERAAAGPLGMEMPIMHDGDRYELVKEIGSGNFGVARLMRNRASGDLVAVKYIDRGEKIDENVQREIINHRSLRHPNIIRFKEVILTPTHLAIVMEYASGGELFERICSAGRFSEDEARFFFQQLISGVSYCHSMQVCHRDLKLENTLLDGSTAPRLKICDFGYSKSSVLHSQPKSTVGTPAYIAPEVLLKKEYDGKIADVWSCGVTLYVMLVGAYPFEDPEDPKNFRKTIQKILGVQYSIPDYVHISPECRDLITRIFVGNPASRITMPEIKNHPWFMKNIPADLMDDGMVSNQYEEPDQPMQNMNEIMQILAEATIPAAGTSGINQFLTDSLDLDDDMEDMDSDLDLDIESSGEIVYAM
notes: also called histidine-tagged OsSAPK9 protein
For B1, the binding result is on record as “binds”.
